Source: patent publication US20250057918A1 (YALE UNIVERSITY, published 2025)
Changes are numbered by the printed parent chain. Where two headings read alike, the source gives them in different places.

Legend:
[1] = target: T1, mouse IL-18Rα ectodomain (amino acids 19-329) (mouse, UniProt Q61098 19-329, biotinylated on the AviTag (BirA ligase)); experiment: flow cytometry, mIL-18Rα titrated on yeast-displayed murine IL-18 variant (binding isotherm, %Max)
T1 construct: range 19-329; Secreted from Expi293 cells (H7 signal peptide); also called mIL-18Rα; Ra
T1 sequence: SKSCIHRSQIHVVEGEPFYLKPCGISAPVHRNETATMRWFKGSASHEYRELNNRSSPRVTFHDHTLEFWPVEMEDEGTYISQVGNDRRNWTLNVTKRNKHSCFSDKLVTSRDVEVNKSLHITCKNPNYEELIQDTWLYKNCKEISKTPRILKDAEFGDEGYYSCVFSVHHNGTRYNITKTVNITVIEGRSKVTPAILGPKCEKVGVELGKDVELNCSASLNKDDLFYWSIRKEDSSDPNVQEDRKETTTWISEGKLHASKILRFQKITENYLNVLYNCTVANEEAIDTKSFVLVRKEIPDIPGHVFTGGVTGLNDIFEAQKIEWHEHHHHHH

[2] = target: T2, mouse IL-18BP (amino acids 31-194) (mouse, UniProt Q9Z0M9 29-193, biotinylated on the AviTag (BirA ligase)); experiment: on-yeast isotherms; KD IL-18BP / KD IL-18Rα (10 µM used for NBD); on-yeast isotherms; 10 µM put in for NBD
T2 construct: Secreted decoy receptor; made in Expi293 cells (H7 signal peptide); the stated range is the same as for the human protein; also called mIL-18BP
T2 sequence: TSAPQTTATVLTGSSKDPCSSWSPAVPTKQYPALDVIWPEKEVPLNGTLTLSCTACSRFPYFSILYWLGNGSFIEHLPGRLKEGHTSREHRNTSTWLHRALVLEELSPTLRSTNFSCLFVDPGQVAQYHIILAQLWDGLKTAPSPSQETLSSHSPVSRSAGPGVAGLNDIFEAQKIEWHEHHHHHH

[3] = target: T2, mouse IL-18BP (amino acids 31-194); experiment: SPR; KD IL-18BP / KD IL-18Rα; SPR; ratio of two KDs
Description: By contrast, very little binding is observed with the same variants and mIL-18BP (right). (FIG. 11B) Representative surface plasmon resonance sensorgrams between immobilized biotinylated mIL-18BP and the murine DR-IL-18 variants.
(§1) Experiments were conducted using a Biacore™ T100 (Protein analysis interaction system) and carried out at 25° C. Biotinylated IL-18Rα or TL-18BP were immobilized onto a Biacore™ biotin capture chip (Series S CAP sensor chip, GE Healthcare) to yield an Rmax of ˜50 RU (IL-18Rα) or ˜10 RU (IL-18BP). Measurements were made with serial dilutions of the IL-18 variants in HEPES buffered Saline-P+ buffer (10 mM HEPES pH 7.4, 150 mM NaCl, 0.005% surfactant P20). The surface was regenerated by three 60-see injections of regeneration buffer (3/4 (v/v) 8M guanidine hydrochloride with 1/4 (v/v) 1M sodium hydroxide). Experiments were performed in multiple channels simultaneously for increased observations. All data were analyzed with the Biacore™ T100 evaluation software version 2.0 with a 1:1 Langmuir binding model.

[4] = target: T2, mouse IL-18BP (amino acids 31-194); experiment: SPR; KD BP / KD Ra normalized to WT IL-18
[5] = target: T3, human IL-18BP (amino acids 31-194) (human, UniProt O95998 31-194, biotinylated on the AviTag (BirA ligase) where immobilized or used for staining); experiment: on-yeast isotherms; KD IL-18BP / KD IL-18Rα (20 µM used for NBD)
T3 construct: Secreted decoy receptor; made in insect cells (gp67 signal peptide); also called hIL-18BP
T3 sequence: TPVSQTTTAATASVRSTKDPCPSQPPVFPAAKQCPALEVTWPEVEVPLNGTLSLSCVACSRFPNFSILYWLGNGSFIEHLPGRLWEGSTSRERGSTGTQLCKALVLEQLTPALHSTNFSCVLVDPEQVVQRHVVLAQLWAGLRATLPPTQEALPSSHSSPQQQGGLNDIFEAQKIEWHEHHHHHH

[6] = target: T4, IL-18 receptor (IL-18R) on HEK-Blue IL-18 reporter cells (UniProt Q13478 19-541; O95256 20-599, limits assumed); experiment: cell-based or functional assay
T4 sequence (looked up) 1: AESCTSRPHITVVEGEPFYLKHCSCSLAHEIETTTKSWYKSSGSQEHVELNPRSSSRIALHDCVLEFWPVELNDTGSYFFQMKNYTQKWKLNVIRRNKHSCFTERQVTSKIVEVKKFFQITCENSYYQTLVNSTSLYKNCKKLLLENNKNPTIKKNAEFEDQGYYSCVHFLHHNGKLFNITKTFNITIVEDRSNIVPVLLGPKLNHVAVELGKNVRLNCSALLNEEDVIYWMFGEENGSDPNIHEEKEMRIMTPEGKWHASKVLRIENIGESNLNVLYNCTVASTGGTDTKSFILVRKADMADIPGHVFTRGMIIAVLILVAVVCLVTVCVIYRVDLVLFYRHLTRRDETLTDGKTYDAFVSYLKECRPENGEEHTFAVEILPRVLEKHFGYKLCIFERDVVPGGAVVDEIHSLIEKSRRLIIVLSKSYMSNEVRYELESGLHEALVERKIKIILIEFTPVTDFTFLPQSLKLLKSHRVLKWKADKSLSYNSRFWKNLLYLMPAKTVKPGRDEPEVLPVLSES
T4 sequence (looked up) 2: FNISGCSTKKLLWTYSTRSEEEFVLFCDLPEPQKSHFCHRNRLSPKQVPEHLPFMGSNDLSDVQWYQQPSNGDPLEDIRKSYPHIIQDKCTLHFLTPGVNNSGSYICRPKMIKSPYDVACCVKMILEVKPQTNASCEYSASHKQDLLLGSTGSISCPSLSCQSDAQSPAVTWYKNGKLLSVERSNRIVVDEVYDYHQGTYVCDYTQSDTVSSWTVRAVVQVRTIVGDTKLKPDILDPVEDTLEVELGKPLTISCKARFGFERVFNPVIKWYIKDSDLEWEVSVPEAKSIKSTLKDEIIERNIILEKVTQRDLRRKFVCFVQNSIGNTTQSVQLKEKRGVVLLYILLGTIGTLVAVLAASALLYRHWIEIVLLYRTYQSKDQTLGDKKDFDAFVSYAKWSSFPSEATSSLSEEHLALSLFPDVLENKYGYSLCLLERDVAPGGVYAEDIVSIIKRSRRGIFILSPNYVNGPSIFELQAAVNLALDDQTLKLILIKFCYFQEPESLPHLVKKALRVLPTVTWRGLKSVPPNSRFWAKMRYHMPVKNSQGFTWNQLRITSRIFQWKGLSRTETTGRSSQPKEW

[7] = target: T3, human IL-18BP (amino acids 31-194); experiment: SPR; KD BP / KD Ra normalized to WT IL-18
[8] = target: T3, human IL-18BP (amino acids 31-194); experiment: SPR; KD IL-18BP / KD IL-18Rα; SPR; ratio of two KDs
Description: as §1
To additionally characterize the receptor binding activities of the DR-IL-18 variants, the cytokines were expressed recombinantly and surface plasmon resonance for IL-18Rα and IL-18BP was performed (see FIG. 5B for representative traces).

[9] = target: T3, human IL-18BP (amino acids 31-194); experiment: on-yeast isotherms; KD IL-18BP / KD IL-18Rα; on-yeast isotherms; ratio of two KDs
[10] = target: T4, IL-18 receptor (IL-18R) on HEK-Blue …; experiment: cell-based or functional assay; remark: listed apart in the source

B1: mB1 (ligand)
chain: HFGRLHCTTAVIRNINDQVLFVDKRQPVFEDMTDIDQSASEPQTRLIIYGYADSDARAKAVTLSVKDSKMSTLSCKNKIISFEEMDPPENIDDIQSDLIFFQKSVPGHNKMEFESSLYEGHFLACQKEDDAFKLILKKKDENGDKSVMFTVTNLHQS
notes: recombinant with C-terminal hexahistidine tag in SPR
- EC50 (read off the curve) [1]: ~20 nM
- KD ratio: IL-18BP/IL-18Rα [2]: > 559
- KD ratio: IL-18BP/IL-18Rα [3]: 21000

B2: mCS1 (ligand)
chain: B1 chain with H1N, D55R, A56V, A58G, S104R, V151L
notes: as for B1
- EC50 (read off the curve) [1]: ~10 nM
- KD ratio: IL-18BP/IL-18Rα [2]: > 935
- KD ratio: IL-18BP/IL-18Rα [3]: 7040

B3: mCS2 (ligand)
chain: B1 chain with G50A, A52G, D55R, A58G, S104R, V151L
notes: recombinant with C-terminal hexahistidine tag in SPR; also called DR-IL-18 (mCS2); DR-18 variant mCS2
- EC50 (read off the curve) [1]: ~10 nM
- KD ratio: IL-18BP/IL-18Rα [2]: > 885
- KD ratio: IL-18BP/IL-18Rα [3]: 133000
- IL-18 BP:Ra Dissociation Constant Ratio [4]: > 7.5e+07

B4: mC1 (ligand)
chain: B1 chain with H1N, G50A, A52V, S54R, D55R, A56L, A58G, S104K, V151L
notes: as for B1
- KD ratio: IL-18BP/IL-18Rα [2]: > 233
- KD ratio: IL-18BP/IL-18Rα [3]: 26300

B5: 6-12 (ligand)
chain: YFGKLESKLSVIRNLNDQVLFIDQGNRPLFEDMTDSDCRDNAPRTIFIISKYSDSLARGLAVTISVKCEKISTLSCENKIISFKEMNPPDNIKDTKSDIIFFQRDVPGHSRKMQFESSSYEGYFLACEKERDLFKLILKKEDELGDRSIMFTVQNED
notes: recombinant with C-terminal hexahistidine tag in SPR and cell assays; also called h6-12; version 2.0 human DR-IL-18 variant
- KD ratio: IL-18BP/IL-18Rα [5]: 1200
- EC50 (read off the curve); HEK-Blue IL-18 SEAP reporter, OD 655 nM [6]: ~0.6 nM
- IL-18 BP:Ra Dissociation Constant Ratio [7]: > 9.32e+06

B6: 6-27 (ligand)
chain: B5 chain with L56R, Q103A, D105S, S110G, M113T
notes: recombinant with C-terminal hexahistidine tag in SPR and cell assays; also called h6-27; version 2.0 human DR-IL-18 variant
- KD ratio: IL-18BP/IL-18Rα [5]: 480
- EC50 (read off the curve); HEK-Blue IL-18 SEAP reporter, OD 655 nM [6]: ~1 nM
- IL-18 BP:Ra Dissociation Constant Ratio [7]: > 5.86e+06

B7: 6-31 (ligand)
chain: B5 chain with S53G, L56G, Q103E, R111G, M113V
notes: recombinant with C-terminal hexahistidine tag in SPR and cell assays; also called h6-31; version 2.0 human DR-IL-18 variant
- KD ratio: IL-18BP/IL-18Rα [5]: 490
- EC50 (read off the curve); HEK-Blue IL-18 SEAP reporter, OD 655 nM [6]: ~4 nM
- IL-18 BP:Ra Dissociation Constant Ratio [7]: > 1.06e+06

B8: hA8 (ligand)
chain: B5 chain with K8R, S53K, S55K, L56Q, A57P, G59A, L60Q, S110K, R111H, V153I
notes: also called human DR-IL-18 variant A8
- KD ratio: IL-18BP/IL-18Rα [5]: > 347

B9: hCS1 (ligand)
chain: B5 chain with K51T, S53K, L56Q, A57P, L60K, S110K, R111H
notes: recombinant with C-terminal hexahistidine tag in SPR and cell assays
- KD ratio: IL-18BP/IL-18Rα [8]: 2.41
- KD ratio: IL-18BP/IL-18Rα [9]: 300
- EC50 (read off the curve); HEK-Blue IL-18 SEAP reporter, OD 655 nM [10]: ~4 nM
- IL-18 BP:Ra Dissociation Constant Ratio [7]: 3020

B10: hH3 (ligand)
chain: B5 chain with Y1R, K8R, K51T, S53K, L56Q, A57P, L60K, S110K, R111H
- KD ratio: IL-18BP/IL-18Rα [5]: > 239

B11: hB9 (ligand)
chain: RFGKHESKLSVIRNLNDQVLFIDQGNRPLFEDMTDSDCRDNAPRTIFIISTYRDSQPRGKAVTISVKCEKISTLSCENKIISFKEMNPPDNIKDTKSDIIFFERNVPGHKYKMQFESSSYEGYFLACEKERDLFKLILKKEDELGDRSIMFTVQNED
- KD ratio: IL-18BP/IL-18Rα [5]: > 157

B12: hCS3 (ligand)
chain: B11 chain with H5L, R53K, E103Q, N105D, Y111H
notes: as for B9
- KD ratio: IL-18BP/IL-18Rα [8]: 2.27
- KD ratio: IL-18BP/IL-18Rα [9]: 103
- IL-18 BP:Ra Dissociation Constant Ratio [7]: 4350
